B1: Wnt5b: Wnt ligand (secreted Wnt family protein), frizzled receptor agonist (protein, UniProt Q9H1J7 18-359, looked up)
Protein Wnt-5b: QLLTDANSWWSLALNPVQRPEMFIIGAQPVCSQLPGLSPGQRKLCQLYQEHMAYIGEGAKTGIKECQHQFRQRRWNCSTADNASVFGRVMQIGSRETAFTHAVSAAGVVNAISRACREGELSTCGCSRTARPKDLPRDWLWGGCGDNVEYGYRFAKEFVDAREREKNFAKGSEEQGRVLMNLQNNEAGRRAVYKMADVACKCHGVSGSCSLKTCWLQLAEFRKVGDRLKEKYDSAAAMRVTRKGRLELVNSRFTQPTPEDLVYVDPSPDYCLRNESTGSLGTQGRLCNKTSEGMDGCELMCCGRGYNQFKSVQVERCHCKFHWCCFVRCKKCTEIVDQYICK
B2: Wnt5a: Wnt ligand (secreted Wnt family protein), frizzled receptor agonist (protein, UniProt P41221 62-380, looked up)
Protein Wnt-5a: IIGAQPLCSQLAGLSQGQKKLCHLYQDHMQYIGEGAKTGIKECQYQFRHRRWNCSTVDNTSVFGRVMQIGSRETAFTYAVSAAGVVNAMSRACREGELSTCGCSRAARPKDLPRDWLWGGCGDNIDYGYRFAKEFVDARERERIHAKGSYESARILMNLHNNEAGRRTVYNLADVACKCHGVSGSCSLKTCWLQLADFRKVGDALKEKYDSAAAMRLNSRGKLVQVNSRFNSPTTQDLVYIDPSPDYCVRNESTGSLGTQGRLCNKTSEGMDGCELMCCGRGYDQFKTVQTERCHCKFHWCCYVKCKKCTEIVDQFVCK
B3: Wnt7a: Wnt ligand (secreted Wnt family protein), frizzled receptor agonist (protein, UniProt O00755 32-349, looked up)
Protein Wnt-7a: LGASIICNKIPGLAPRQRAICQSRPDAIIVIGEGSQMGLDECQFQFRNGRWNCSALGERTVFGKELKVGSREAAFTYAIIAAGVAHAITAACTQGNLSDCGCDKEKQGQYHRDEGWKWGGCSADIRYGIGFAKVFVDAREIKQNARTLMNLHNNEAGRKILEENMKLECKCHGVSGSCTTKTCWTTLPQFRELGYVLKDKYNEAVHVEPVRASRNKRPTFLKIKKPLSYRKPMDTDLVYIEKSPNYCEEDPVTGSVGTQGRACNKTAPQASGCDLMCCGRGYNTHQYARVWQCNCKFHWCCYVKCNTCSERTEMYTCK

Assays:
[1] = target: T1, hFz1 (Homo sapiens, UniProt Q9UP38); experiment: Europium-GTP assay of G protein (Go) activation by hFz1 membranes; type: biochemical; details: for relative stimulation among the Wnt ligands tested: detergent-solubilized hFz1, GTP incorporation into Go; for activation of the trimeric Go protein (GTP incorporation into Go): detergent-solubilized hFz1-expressing membrane fractions, not control membranes
T1 construct: made in house; host or cells: Escherichia coli (pMAL-p2), membrane fraction
T1 sequence (Q9UP38 70-647): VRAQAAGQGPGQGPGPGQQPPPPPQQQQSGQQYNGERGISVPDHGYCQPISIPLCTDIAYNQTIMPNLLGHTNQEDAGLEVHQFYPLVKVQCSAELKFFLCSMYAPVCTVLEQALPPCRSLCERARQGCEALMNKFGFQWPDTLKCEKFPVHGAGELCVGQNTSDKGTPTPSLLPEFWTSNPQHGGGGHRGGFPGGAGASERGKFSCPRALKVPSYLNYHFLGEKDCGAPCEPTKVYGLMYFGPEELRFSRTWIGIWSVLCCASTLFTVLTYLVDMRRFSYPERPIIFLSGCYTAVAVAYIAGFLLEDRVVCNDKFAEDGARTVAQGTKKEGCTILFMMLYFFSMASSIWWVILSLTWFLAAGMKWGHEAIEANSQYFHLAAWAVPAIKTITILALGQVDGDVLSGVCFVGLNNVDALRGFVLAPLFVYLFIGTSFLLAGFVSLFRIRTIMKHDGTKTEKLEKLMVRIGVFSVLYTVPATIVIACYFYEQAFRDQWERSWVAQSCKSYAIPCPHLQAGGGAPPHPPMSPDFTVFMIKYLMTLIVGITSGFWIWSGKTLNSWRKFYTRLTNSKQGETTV
Protocol: The coding sequence of hFz1 was cloned in-frame into the pMAL-p2 plasmid (New England BioLabs) allowing expression of the protein as an N-terminal fusion with maltose binding protein (MBP). The natural signal sequence of MBP directs the fusion protein through the cytoplasmic membrane. Expression conditions were optimized to allow slow expression to maximize correct hFz1 folding: Expression was performed at 18° C. for 18 h, and in the presence of glucose to minimize the expression of endogenous MBP protein.
Bacteria were harvested by centrifugation, resuspended in PBS (phosphate-buffered saline) and disrupted by French press. The resultant suspension was cleared from the cell debris by low-speed centrifugation, followed by ultracentrifugation to pellet the membranes expressing MBP-hFz1. The membranes were resuspended in PBS supplemented with the protease-inhibitor cocktail (Roche) and frozen in aliquots at −80° C. Control bacteria were transformed with the empty pMAL-p2 vector, induced with IPTG, grown and harvested in parallel with hFz1-transformed bacteria.
HFz1 coding sequence was subcloned into pIRES2-DsRed-Express plasmid (Invitrogen). CHO cells were transiently transfected with lipofectamine following manufacturer's protocol. Transfection efficiency was estimated to be >50%. Two days post-transfection, transfected cells in parallel with control non-transfected cells of a similar cell density were washed, detached with EDTA, pelleted, washed with PBS, and disrupted in a glass-rod homogenizer in a hypotonic buffer (10 mM Hepes pH 7.5). Membrane fraction was prepared and stored as above.
Europium-GTP assay of G protein activation using a time-resolved fluorescence assay was performed. In one well of a 96-well AcroWell plate, 100 μl were mixed containing 4-10 μg/ml membrane protein from the hFz1 expression in bacteria or in CHO, 50 mM Hepes, pH 7.4, 1 mM MgCl2, 50 mM NaCl and 1 mg/ml saponin. Bacterial membranes expressing hFz1 or bacterial control membranes were used at 0.1 mg/ml protein concentration for membrane protein preparation. CHO membranes expressing hFz1 or CHO control membranes were used at 0.01 mg/ml protein concentration. Varying amounts of the following were added: bovine brain Go (Calbiochem), Wnt3a (R&Dsystems), Wnt3a-conditioned or control L-cell medium. Extra GDP was omitted in most experiments. 30 min after incubating this mixture at room temperature on a shaker (100 rpm), Europium-GTP was added, and incubation was continued for 30 more min. Afterwards the content of the wells was filtered and washed using the Multiscreen Vacuum Manifold (Millipore). Amounts of Europium-GTP retained by the membranes were then measured using the Perkin Elmer Victor3 Multilabel Plate Reader.

[2] = Solubility of purified Wnt3A after heparin chromatography; type: physicochemical; details: 1×PBS, 1M NaCl, 1% CHAPS, pH7.3
Protocol: To purify Wnt protein as an example for a typical Fz ligand LWnt3A or LWnt5A cell lines producing and secreting Wnt proteins were used. By growing the cells adherent for 4 days from a 1:10 to 1:20 split high amounts of Wnt-3A were obtained. The medium was DMEM plus 10% FBS, omitting the serum lowers the levels of Wnt protein in the medium. The Wnt containing medium was filtered, detergent was added (Triton X-100 or CHAPS) to a final concentration of 1%, and the medium was refiltered just before applying the material to Blue Sepharose.
Purification by Blue Sepharose fractionation yielded pure Wnt protein, wherein Wnt3A conditioned medium was applied on a Blue Sepharose HP column. Wnt elution from Blue Sepharose was done in a single step from 150 mM to 1.5 M KCl. Approximately, half of the Wnt protein eluted immediately with the salt and the majority of contaminants, but the other half was retained and eluted later in a second pool. This second pool contained much less total protein and consequently contained a higher proportion of Wnt.
Pooled eluted Wnt fractions from Blue Sepharose purification were concentrated by […] to 5 or 10 ml volume using Centricon or Amicon Ultra 30 ultrafiltration device (Amicon) depending on size of […] column. […]

[3] = target: T2, hFz7 (Homo sapiens, UniProt O75084); experiment: in vitro Go activation assay with bacterially expressed hFz7; type: biochemical; details: detergent-solubilized bacterially expressed hFz7
T2 construct: made in house
Text: (§1) The results obtained with three human Frizzled receptors (hFz1, hFz6, hFz7) and four Wnt ligands (Wnt3a, Wnt5a, Wnt5b, and Wnt7a) allow to compose a table of pair-wise Wnt-Frizzled activations using Go stimulation as the read-out (FIG. 5C).
(§2) Detergent-solubilized hFz6 and Fz7 stimulated GTP incorporation into Go in the presence of different Wnt ligands. Data are presented in FIG. 5C as summary of the capacity of the tested Wnt ligands to stimulate the tested Frizzled receptors to activate Go in vitro. […] Go activation by the Wnt-Frizzled pairs is denoted (in the order of the decreasing activation capacity) as “+++”, “++”, “+”, “+/−”, and “−” using as criteria the lowest Go-activating Wnt concentration as well as the maximal Go activation level achieved by any Wnt concentration.
(§3) Europium-GTP assay of G protein activation using a time-resolved fluorescence assay was performed. In one well of a 96-well AcroWell plate, 100 μl were mixed containing 4-10 μg/ml membrane protein from the hFz1 expression in bacteria or in CHO, 50 mM Hepes, pH 7.4, 1 mM MgCl2, 50 mM NaCl and 1 mg/ml saponin. Bacterial membranes expressing hFz1 or bacterial control membranes were used at 0.1 mg/ml protein concentration for membrane protein preparation. […] Amounts of Europium-GTP retained by the membranes were then measured using the Perkin Elmer Victor3 Multilabel Plate Reader.

[4] = target: T3, hFz6 (Homo sapiens, UniProt O60353); experiment: in vitro Go activation assay with bacterially expressed hFz6; type: biochemical; details: detergent-solubilized bacterially expressed hFz6
T3 construct: made in house
Text: as §1, §2, §3

| Molecule | relative stimulation among the Wnt ligands tested [1] | activation of the trimeric Go protein (GTP incorporation into Go) [1] | also measured |
| --- | --- | --- | --- |
| fMDGCEL [reference compound] |  |  | stimulation of hFz1 activity towards Go ([1]; E. coli produced hFz1 membranes, Wnt5a mimetic peptide): can be stimulated |
| Wnt3a | most active |  | stimulation of hFz1 activity towards Go ([1]; E. coli-produced hFZ1 membranes, 0.3 μg/ml purified Wnt3a): stimulated; solubility and activity maintained at a maximum concentration [2]: ≤ 100 µg/mL |
| B1 | more modest stimulation | concentration-dependent activation |  |
| B2 | most active | concentration-dependent activation | Go activation by hFz7 upon addition of ligand [3]: mostly stimulated |
| B3 | more modest stimulation | concentration-dependent activation | Go activation by hFz6 upon addition of ligand [4]: activated Go |

Source: US8119354B2, “Cell-free assay product and method of use thereof for measuring activity of frizzled receptors” (Universitaet Konstanz, priority 2007, dated 2012)
